Reference: patent publication US20240117018A1

Key:
Experiment in all cases: cell-based or functional assay
[1] = target: Env of HIV-1 pseudovirus 3365.v2.c2 (HIV-1)
[2] = target: CAP45.2.00.G3 Env pseudovirus (HIV-1)
[3] = target: PVO.4 Env pseudovirus (HIV-1)
[4] = target: 928-28 Env pseudovirus (HIV-1)
[5] = target: 1056_10_TA11_1826 Env pseudovirus (HIV-1)
[6] = target: Du156.12 Env pseudovirus (HIV-1)
[7] = target: REJO4541.67 Env pseudovirus (HIV-1)
[8] = target: Du422.1 Env pseudovirus (HIV-1)
[9] = target: CNE17 Env pseudovirus (HIV-1)
[10] = target: Ce0682_E4 Env pseudovirus (HIV-1)
[11] = target: CAAN5342.A2 Env pseudovirus (HIV-1)
[12] = target: ZM249M.PL1 Env pseudovirus (HIV-1)
[13] = target: SC422661.8 Env pseudovirus (HIV-1)
[14] = target: 7030102001E5(Rev-) Env pseudovirus (HIV-1)
[15] = target: CNE52 Env pseudovirus (HIV-1)
[16] = target: TRO.11 Env pseudovirus (HIV-1)
[17] = target: CNE30 Env pseudovirus (HIV-1)
[18] = target: 246F C1G Env pseudovirus (HIV-1)
[19] = target: CNE21 Env pseudovirus (HIV-1)
[20] = target: HIV-16055-2.3 Env pseudovirus (HIV-1)
[21] = target: 249M B10 Env pseudovirus (HIV-1)
[22] = target: ZM197M.PB7 Env pseudovirus (HIV-1)
[23] = target: Ce1172_H1 Env pseudovirus (HIV-1)
[24] = target: RHPA4259.7 Env pseudovirus (HIV-1)
[25] = target: Q461.e2 Env pseudovirus (HIV-1)
[26] = target: AC10.0.29 Env pseudovirus (HIV-1)
[27] = target: T257-31 Env pseudovirus (HIV-1)
[28] = target: Q259.d2.17 Env pseudovirus (HIV-1)
[29] = target: TRJO4551.58 Env pseudovirus (HIV-1)
[30] = target: Ce1176_A3 Env pseudovirus (HIV-1)
[31] = target: ZM135M.PL10a Env pseudovirus (HIV-1)
[32] = target: Ce704809221_1B3 Env pseudovirus (HIV-1)
[33] = target: Ce703010054_2A2 Env pseudovirus (HIV-1)
[34] = target: 1012_11_TC21_3257 Env pseudovirus (HIV-1)
[35] = target: 191955_A11 Env pseudovirus (HIV-1)
[36] = target: 1054_07_TC4_1499 Env pseudovirus (HIV-1)
[37] = target: HIV-1 Env pseudovirus 928-28 (HIV-1)

10-1074 (antibody)
IC50 [1]: 0.131 µg/mL
IC80 [1]: 0.45 µg/mL

PGT121 (antibody)
IC50 [2]: 1.63 µg/mL
IC80 [2]: > 50 µg/mL
IC50 [3]: 0.098 µg/mL
IC80 [3]: 0.343 µg/mL
IC50 [4]: 44.2 µg/mL
IC80 [4]: > 50 µg/mL
IC50 [5]: 0.004 µg/mL
IC80 [5]: 0.081 µg/mL
IC50 [6]: 0.004 µg/mL
IC80 [6]: 0.017 µg/mL
IC50 [7]: 4.77 µg/mL
IC80 [7]: > 50 µg/mL
IC50 [8]: 0.039 µg/mL
IC80 [8]: 0.143 µg/mL
IC50 [9]: 7.6 µg/mL
IC80 [9]: > 50 µg/mL
IC50 [10]: > 50 µg/mL
IC80 [10]: > 50 µg/mL
IC50 [11]: 0.007 µg/mL
IC80 [11]: 0.023 µg/mL
IC50 [12]: > 50 µg/mL
IC80 [12]: > 50 µg/mL
IC50 [13]: 0.038 µg/mL
IC80 [13]: 0.177 µg/mL
IC50 [14]: 0.009 µg/mL
IC80 [14]: 0.027 µg/mL
IC50 [15]: 2.04 µg/mL
IC80 [15]: 18.9 µg/mL
IC50 [16]: 0.005 µg/mL
IC80 [16]: 0.025 µg/mL
IC50 [17]: 0.078 µg/mL
IC80 [17]: 0.291 µg/mL
IC50 [18]: 0.041 µg/mL
IC80 [18]: 0.14 µg/mL
IC50 [19]: 0.007 µg/mL
IC80 [19]: 0.035 µg/mL
IC50 [20]: 0.153 µg/mL
IC80 [20]: 4.8 µg/mL
IC50 [21]: > 50 µg/mL
IC80 [21]: > 50 µg/mL
IC50 [22]: > 50 µg/mL
IC80 [22]: > 50 µg/mL
IC80 [23]: 0.036 µg/mL
IC80 [24]: 0.035 µg/mL
IC50 [25]: > 50 µg/mL
IC80 [25]: > 50 µg/mL
IC50 [26]: 0.024 µg/mL
IC80 [26]: 0.073 µg/mL
IC50 [27]: > 50 µg/mL
IC80 [27]: > 50 µg/mL
IC50 [28]: 15.4 µg/mL
IC80 [28]: > 50 µg/mL
IC50 [29]: 1.31 µg/mL
IC80 [29]: 37.9 µg/mL
IC50 [30]: 0.013 µg/mL
IC80 [30]: 0.035 µg/mL
IC50 [31]: 0.716 µg/mL
IC80 [31]: 5.25 µg/mL
IC50 [32]: 0.025 µg/mL
IC80 [32]: 0.126 µg/mL
IC50 [33]: > 50 µg/mL
IC80 [33]: > 50 µg/mL
IC50 [34]: 0.003 µg/mL
IC80 [34]: 0.017 µg/mL
IC50 [35]: > 50 µg/mL
IC80 [35]: > 50 µg/mL
IC50 [36]: 0.064 µg/mL
IC80 [36]: 0.304 µg/mL

VRC01 (antibody)
IC50 (Titer in TZM.bl cells) [37]: 0.41 µg/mL
IC80 (Titer in TZM.bl cells) [37]: 1.7 µg/mL
